Source: paper PMC6155162, “Identification of mesothelioma-specific sialylated epitope recognized with monoclonal antibody SKM9-2 in a mucin-like membrane protein HEG1” (Scientific Reports, 2018)

B1: Native endogenous HEG1: native HEG1, 400 kDa mucin-like membrane protein, in ACC-MESO4 cells (protein, UniProt Q9ULI3 30-1381, looked up)
Protein HEG homolog 1: TRDPPPSPARRALSLAPLAGAGLELQLERRPEREPPPTPPRERRGPATPGPSYRAPEPGAATQRGPSGRAPRGGSADAAWKHWPESNTEAHVENITFYQNQEDFSTVSSKEGVMVQTSGKSHAASDAPENLTLLAETADARGRSGSSSRTNFTILPVGYSLEIATALTSQSGNLASESLHLPSSSSEFDERIAAFQTKSGTASEMGTERAMGLSEEWTVHSQEATTSAWSPSFLPALEMGELTTPSRKRNSSGPDLSWLHFYRTAASSPLLDLSSSSESTEKLNNSTGLQSSSVSQTKTMHVATVFTDGGPRTLRSLTVSLGPVSKTEGFPKDSRIATTSSSVLLSPSAVESRRNSRVTGNPGDEEFIEPSTENEFGLTSLRWQNDSPTFGEHQLASSSEVQNGSPMSQTETVSRSVAPMRGGEITAHWLLTNSTTSADVTGSSASYPEGVNASVLTQFSDSTVQSGGSHTALGDRSYSESSSTSSSESLNSSAPRGERSIAGISYGQVRGTAIEQRTSSDHTDHTYLSSTFTKGERALLSITDNSSSSDIVESSTSYIKISNSSHSEYSSFFHAQTERSNISSYDGEYAQPSTESPVLHTSNLPSYTPTINMPNTSVVLDTDAEFVSDSSSSSSSSSSSSSSGPPLPLPSVSQSHHLFSSILPSTRASVHLLKSTSDASTPWSSSPSPLPVSLTTSTSAPLSVSQTTLPQSSSTPVLPRARETPVTSFQTSTMTSFMTMLHSSQTADLKSQSTPHQEKVITESKSPSLVSLPTESTKAVTTNSPLPPSLTESSTEQTLPATSTNLAQMSPTFTTTILKTSQPLMTTPGTLSSTASLVTGPIAVQTTAGKQLSLTHPEILVPQISTEGGISTERNRVIVDATTGLIPLTSVPTSAKEMTTKLGVTAEYSPASRSLGTSPSPQTTVVSTAEDLAPKSATFAVQSSTQSPTTVSSSASVNSCAVNPCLHNGECVADNTSRGYHCRCPPSWQGDDCSVDVNECLSNPCPSTAMCNNTQGSFICKCPVGYQLEKGICNLVRTFVTEFKLKRTFLNTTVEKHSDLQEVENEITKTLNMCFSALPSYIRSTVHASRESNAVVISLQTTFSLASNVTLFDLADRMQKCVNSCKSSAEVCQLLGSQRRIFRAGSLCKRKSPECDKDTSICTDLDGVALCQCKSGYFQFNKMDHSCRACEDGYRLENETCMSCPFGLGGLNCGNPYQLITVVIAAAGGGLLLILGIALIVTCCRKNKNDISKLIFKSGDFQMSPYAEYPKNPRSQEWGREAIEMHENGSTKNLLQMTDVYYSPTSVRNPELERNGLYPAYTGLPGSRHSCIFPGQYNPSFISDESRRRDYF
B2: 1 kb: FLAG-tagged N-terminal deletion mutant hHEG1 (1086-1481) (protein)
chain: MSALLILALVGAAVADYKDDDDKLAAANSSIDLVNSCAVNPCLHNGECVADNTSRGYHCRCPPSWQGDDCSVDVNECLSNPCPSTAMCNNTQGSFICKCPVGYQLEKGICNLVRTFVTEFKLKRTFLNTTVEKHSDLQEVENEITKTLNMCFSALPSYIRSTVHASRESNAVVISLQTTFSLASNVTLFDLADRMQKCVNSCKSSAEVCQLLGSQRRIFRAGSLCKRKSPECDKDTSICTDLDGVALCQCKSGYFQFNKMDHSCRACEDGYRLENETCMSCPFGLGGLNCGNPYQLITVVIAAAGGGLLLILGIALIVTCCRKNKNDISKLIFKSGDFQMSPYAEYPKNPRSQEWGREAIEMHENGSTKNLLQMTDVYYSPTSVRNPELERNGLYPAYTGLPGSRHSCIFPGQYNPSFISDESRRRDYF

Tests used:
SKM9-2 [1] = assay: Deglycosylation analysis: western blotting using SKM9-2 of neuraminidase-treated cell lysates; type: binding; details: full-length HEG1, lysates of ACC-MESO4 (native) or HEG1-transfected HEK293T, 6% SDS-PAGE
From the text: Figure 8 SKM9-2 epitope produced from mesothelioma cells. (a) Chromatogram of SKMepmin3 separation using anion exchange column. SKMepmin3 produced from HEK293T (blue line) or ACC-MESO4 (pink line) was affinity-purified using SKM9-2-immobilized resins and separated by Mini Q 4.6/50 PE. A major peak of SKMepmin3 purified from HEK293T contained two disialyl T antigens (Fig. 6). (b) Western blotting for epitope-fused GPI-anchor protein (7.6231) treated with neuraminidases. Cell lysate of 7.6231-transfected ACC-MESO1 (top panel), ACC-MESO4 (middle panel), or HEK293T (lower panel) was treated with α2-3 Neuraminidase S or Neuraminidase A, resolved by 4–15% SDS-PAGE, and analyzed by western blotting using SKM9-2. (c) Western blotting for full-length HEG1 treated with neuraminidases. Cell lysates of ACC-MESO4 (upper panel) and HEG1-transfected HEK293T (lower panel) were treated with α2-3 Neuraminidase S or Neuraminidase A and analyzed by 6% SDS-PAGE and western blotting using SKM9-2. (d) Schematic of SKM9-2 epitope. Full-length blots are presented in Supplementary Fig. S10.
Monolayer cells were solubilized with 20 mM Tris buffer (pH 8.0) containing 1% SDS, 1 mM phenylmethylsulfonyl fluoride, 125 mU/mL Benzonase Nuclease (Merck Millipore Co., Tokyo, Japan) (25 µL/cm^2 culture surface area). The lysate (10 µL/lane) was resolved by SDS-PAGE under reducing conditions using 6% polyacrylamide gels or 4–15% precast gels (Bio-Rad Laboratories Inc., Hercules, CA, USA). Then it was transferred to a polyvinylidene difluoride membrane (Immobilon-P; Merck Millipore Co.) by semi-dry blotting in a buffer containing 25 mM Tris, 192 mM glycine, 0.1% SDS, and 20% methanol. The membrane was blocked with 5% non-fat milk in 20 mM Tris-buffered saline (pH 7.2) containing 0.1% Tween 20 and reacted with 1 µg/mL of mAb SKM9-2 or anti-FLAG (Anti-DYKDDDDK tag mAb; 1E6, Wako Pure Chemical Industries, Osaka, Japan). After washing, it was treated with horseradish peroxidase-conjugated goat anti-mouse IgG (Jackson ImmunoResearch, West Grove, PA, USA), and developed with Amersham ECL select (GE Healthcare, Buckinghamshire, UK). Although glycan in non-fat milk often interferes the glycan-dependent binding of an antibody, the SKM9-2 binding was not affected by the blocking using non-fat milk, in comparison with 5% bovine serum albumin (Supplementary Fig. S6).
Cell lysate or SKMepmin3 was treated with α2-3 Neuraminidase S, α2-3, 6, 8, 9 Neuraminidase A, and O-Glycosidase (New England Biolabs Japan, Tokyo, Japan) in 50 mM sodium phosphate (pH 7.5) containing 1% Nonidet P-40, according to the manufacturer’s instructions. The cell lysate sample was resolved by 4–15% or 6% SDS-PAGE under reducing conditions and detected by western blotting using SKM9-2. The analysis of the SKMepmin3 sample was performed by SPR.

SKM9-2 [2] = assay: Western blotting using SKM9-2 of HEG1 truncated mutants and epitope-fused GPI-anchor proteins; type: binding; details: cell lysates of transfected HEK293T, SDS-PAGE under reducing conditions, 1 µg/mL SKM9-2
From the text: Figure 1 SKM9-2 binding to truncated mutants of HEG1. Schematics of full-length HEG1 (Full) and the truncated mutants are indicated on the left side and the results of western blotting using SKM9-2 are shown on the right side. Truncated amino acid position, which is based on a full-length variant of HEG1 containing exon 6, is shown as a number in the schematic of domain structure. The region of the SKM9-2 epitope is shown as a red square. […] SLURP GPI-anchor protein[18] was used as a fused GPI-anchor protein (violet square). The terminal sequences of the HEG1 peptide are shown in the western blot lane. The samples were resolved by 6% SDS-PAGE (a and b) or 4–15% SDS-PAGE (c) under reducing conditions and were detected by western blotting using SKM9-2. Cyt, cytoplasmic domain; EGFs, EGF related domains; Ser/Thr, serine/threonine rich region; SLURP, secreted lymphocyte antigen-6/urokinase-type plasminogen activator receptor-related peptide; SP, signal peptide; TM, transmembrane domain. Full-length blots are presented in Supplementary Fig. S7.
Figure 2 Epitope mapping of SKM9-2. Schematic of epitope peptides (left side) and western blots resolved by 4–15% SDS-PAGE (right side) are shown. The HEG1 peptide sequences are indicated in the western blot lane. Each epitope peptide was fused with a signal peptide (dashed line square) and a SLURP GPI-anchor protein (violet square). Full-length blots are presented in Supplementary Fig. S8.
Figure 3 Alanine scanning of SKM9-2 epitope. […] Cell lysates of transfected HEK293T (upper panel) or transfected ACC-MESO1 (lower panel) were resolved by 4–15% SDS-PAGE and analyzed by western blotting using SKM9-2. (b) S897A mutant of FLAG-tagged HEG1 in HEK293T was resolved by 4–15% SDS-PAGE and analyzed by western blotting using SKM9-2 (upper panel) or anti-FLAG mAb (lower panel). Native HEG1 in ACC-MESO4 and FLAG-tagged HEG1 without mutation in HEK293T were used as controls. Full-length blots are presented in Supplementary Fig. S9.
Sequences of tested HEG1 are shown in Supplementary Dataset. Full-length HEG1 cDNA was synthesized from total RNA purified with TRIzol reagent (Thermo Fisher Scientific) from ACC-MESO-4, using an oligo dT primer and SuperScript II RNase H reverse transcriptase (Thermo Fisher Scientific). cDNA encoding the HEG1 open reading frame was amplified by PCR using PrimeSTAR HS DNA Polymerase (Takara Bio Inc., Shiga, Japan). The HEG1 cDNA was cloned and inserted into the pcDNA3.1(−) mammalian expression vector (Thermo Fisher Scientific). For analyses of N-terminal truncation, we inserted mutants into pFLAG-CMV1 (Sigma-Aldrich Japan K.K., Tokyo, Japan). For analyses of C-terminal deletion lacking the transmembrane domain, we used mutants that were fused with a GPI-anchor protein, SLURP1-gpi[18], in pcDNA3.1(+) (Thermo Fisher Scientific) (Supplementary Dataset). Alanine substituted mutants were prepared using site directed mutagenesis. To produce a soluble epitope peptide, a modified HEG1 signal peptide and a C-terminal tag containing the FLAG tag plus a polyhistidine sequence were used in the mammalian expression vector pEF-BOS[39] (Supplementary Dataset). The plasmid constructs were transfected with Lipofectamine 3000 (Thermo Fisher Scientific). The HEG1 peptide-expressing 293 H clone was obtained by selection with geneticin (Thermo Fisher Scientific).
Monolayer cells were solubilized with 20 mM Tris buffer (pH 8.0) containing 1% SDS, 1 mM phenylmethylsulfonyl fluoride, 125 mU/mL Benzonase Nuclease (Merck Millipore Co., Tokyo, Japan) (25 µL/cm^2 culture surface area). The lysate (10 µL/lane) was resolved by SDS-PAGE under reducing conditions using 6% polyacrylamide gels or 4–15% precast gels (Bio-Rad Laboratories Inc., Hercules, CA, USA). […]

Row | Molecule | SKM9-2 binding (western blot) (SKM9-2 [1]; Neuraminidase A) | SKM9-2 binding (western blot) (SKM9-2 [1]; α2–3 Neuraminidase S) | recognition by SKM9-2 upon western blot analysis (SKM9-2 [2])
1 | B1 | lost | weakened | 
2 | B2 |  |  | not detected
